The supplement of paper PMC10567573

B1: LRRC45 (parent)
chain: FQTRQEMTSMSAELKMRAIQAEER
B2: ZNF511 (parent)
chain: AAPFRFVARPVRFPREHQFFEDGD

Variants of: B1
Assay: protein stability index of a GFP-peptide fusion (GPS, HEK-293T) (PSI 1-6); higher = more stable
Conditions: c terminus: a fixed tail appended
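Further: lentivirally expressed fusions sorted by FACS into six bins by GFP to DsRed ratio, PSI derived from sequencing read proportions per bin multiplied by bin number.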

Variant | protein stability index
R17M | 4.18
R17N | 4.07
R17L | 3.95
R17F | 2.84
R17W | 2.3
R17A | 4.34
R17K | 4.25
R17Y | 3.67
R17C | 4.01
R17I | 3.94
R17E | 4.33
R17D | 4.59
R17P | 4.33
R17S | 3.43
R17T | 4.08
M10G | 4.34
M10L | 4.27
M10N | 4.14
M10A | 3.84
M10V | 3.94
M10C | 2.53
M10H | 4.12
M10R | 4.16
M10I | 3.69
M10S | 4.1
M10F | 4.1

Variant | protein stability index
M10D | 3.98
M10W | 3.07
M10Y | 3.97
M10P | 4.55
E23I | 3.7
E23G | 3.56
E23V | 3.22
E23S | 3.52
E23Q | 4.11
E23C | 2.61
E23R | 3.54
E23W | 2.26
E23L | 3.1
E23T | 3.16
E23Y | 2.88
E23H | 3.39
A21R | 3.8
A21D | 4.63
A21V | 3.59
A21P | 3.89
A21H | 4.03
A21E | 4.32
A21T | 3.83
A21W | 3.43
A21S | 3.81
A21C | 3.68

Variant | protein stability index
A21I | 3.49
A21Y | 3.76
A21G | 3.97
A21K | 3.76
Q20N | 3.83
Q20C | 3
Q20G | 3.62
Q20V | 3.28
Q20E | 4.34
Q20H | 3.98
Q20P | 3.76
Q20K | 3.5
Q20R | 3.2
Q20L | 3.57
Q20S | 4.11
Q2K | 3.59
Q2I | 2.93
Q2L | 3.76
Q2P | 4.69
Q2C | 3.29
Q2M | 4.3
Q2W | 4.01
Q2T | 3.92
Q2V | 2.23
Q2E | 5.13
Q2D | 4.48

Variant | protein stability index
Q2R | 4.18
Q2F | 4.36
Q2N | 3.89
A18D | 4.33
A18N | 3.88
A18S | 3.82
A18Q | 3.85
A18M | 3.73
A18G | 3.81
A18L | 3.92
A18T | 3.95
A18F | 3.51
A18P | 3.45
A18C | 3.69
A18V | 3.41
A18E | 4.08
A18H | 3.33
A18K | 3.72
A18R | 3.96
A18Y | 3.69
E13T | 3.53
E13I | 3.21
E13D | 3.82
E13F | 3.1
E13S | 3.83
E13P | 3.69

Variant | protein stability index
E13N | 3.1
E13H | 3.08
E13V | 3.35
E13Y | 2.73
E13L | 3.1
E13Q | 4.04
E13R | 3.57
K15D | 4.65
K15M | 3.26
K15T | 4.01
K15C | 3.86
K15Q | 4.12
K15Y | 3.59
K15F | 2.97
K15H | 4.16
K15E | 4.88
K15S | 4.23
K15N | 4.26
S9K | 4.32
S9Q | 3.73
S9N | 4.28
S9C | 3.41
S9F | 3.02
S9L | 4.12
S9Y | 3.28
S9A | 4.43

Variant | protein stability index
S9R | 3.78
S9E | 4.49
S9M | 4.17
S11E | 3.98
S11P | 3.73
S11G | 3.97
S11K | 3.67
S11T | 3.73
S11R | 3.83
S11Y | 2.93
S11W | 1.96
S11A | 3.88
S11I | 3.09
S11Q | 4.16
S11N | 3.92
T8Y | 2.69
T8K | 3.86
T8G | 4.33
T8I | 3.8
T8S | 3.72
T8P | 3.94
T8W | 1.34
T8F | 2.19
T8H | 4.38
T8N | 3.92
T8L | 3.79

Variant | protein stability index
T8R | 4.26
T8C | 3.11
T8V | 3.76
T8M | 3.47
M7G | 3.93
M7D | 4.64
M7Y | 3.31
M7L | 3.77
M7I | 3.41
M7E | 4.57
M7P | 3.71
M7A | 4.26
M7K | 4.02
M7T | 4.61
M7V | 3.4
M7S | 4.27
E22N | 3.44
E22M | 3.64
E22G | 2.53
E22K | 3.57
E22P | 2.74
E22A | 3.56
E22L | 2.59
E22F | 2.56
E22Y | 3.9
E22T | 3.23

Variant | protein stability index
E22I | 3.1
E22S | 3.28
E22Q | 3.37
E22C | 3.18
A12L | 3.92
A12D | 4.26
A12K | 3.92
A12Q | 4.29
A12S | 4.24
A12T | 3.94
A12G | 4.44
A12N | 3.3
A12P | 4.28
A12Y | 3.39
A12R | 3.73
A12F | 3.3
A12W | 2.04
A12E | 4.44
A12I | 3.3
I19F | 3.81
I19M | 3.84
I19A | 4.53
I19Y | 3.8
I19N | 4.27
I19S | 4.38
I19E | 4.55

Variant | protein stability index
I19D | 4.73
I19W | 3.04
I19T | 4.21
I19G | 3.89
I19P | 3.84
I19H | 4.38
R4Q | 4.14
R4E | 4.95
R4F | 3.37
R4G | 4.34
R4W | 2.48
R4M | 3.94
R4H | 3.66
R4T | 4.46
R4K | 4.08
R4V | 3.77
R4P | 4.62
R4L | 4.4
R4I | 4.09
R4S | 4.39
R24A | 4.19
R24N | 4.05
R24D | 4.29
R24L | 4.05
R24E | 4.5
R24S | 4.3

Variant | protein stability index
R24F | 3.19
R24T | 3.96
R24G | 4.18
R24I | 3.94
R24W | 2.85
R24V | 3.67
R24H | 4.01
T3S | 3.97
T3K | 4.28
T3P | 4.04
T3D | 4.4
T3N | 3.52
T3M | 3.52
T3Q | 3.83
T3A | 4.32
T3E | 5.23
T3H | 3.42
T3W | 2.06
T3C | 3.02
T3R | 3.55
Q5D | 4.71
Q5M | 3.32
Q5E | 4.31
Q5R | 3.7
Q5C | 2.82
Q5F | 2.04

Variant | protein stability index
Q5N | 4.25
Q5G | 4.85
Q5S | 3.97
Q5W | 1.66
Q5V | 3.97
Q5K | 4.08
Q5A | 3.83
E6K | 3.53
E6C | 3.33
E6G | 3.48
E6P | 2.78
E6A | 3.42
E6H | 3.02
E6N | 3.87
E6F | 2.27
E6R | 3.72
E6D | 3.63
E6S | 4.01
E6M | 3.36
E6I | 2.5
E6L | 3.03
E6V | 3.11
F1V | 4.92
F1Y | 4.02
F1R | 4.42
F1L | 5.21

Variant | protein stability index
F1T | 5.21
F1Q | 5.21
F1E | 4.91
F1C | 4.85
F1A | 4.88
F1S | 5.1
F1G | 4.46
F1P | 4.5
F1M | 4.52
F1D | 5.24
F1W | 4.66
M16W | 3.66
M16H | 3.88
M16K | 4.36
M16A | 4.39
M16E | 4.68
M16N | 4.16
M16Q | 4.03
M16V | 3.99
M16T | 3.96
M16G | 4
M16Y | 3.83
M16S | 4.37
M16C | 3.79
M16I | 3.52
M16F | 3.75

Variant | protein stability index
M16R | 4.21
M16P | 3.98
L14Y | 3.74
L14A | 4.16
L14H | 4.34
L14N | 4.18
L14K | 4.12
L14V | 4.21
L14G | 4.24
L14F | 3.21
L14Q | 4.28
L14M | 3.83
L14W | 3.2
L14P | 3.99
L14S | 4.11
L14R | 4.23
L14I | 4.13

Variants of: B2
Assay: as above
Conditions: c terminus: a fixed tail appended

Variant | protein stability index
F19D | 2.48
R9W | 1.41
E21D | 2
P3Y | 2.47
F20G | 2.59
